The results in this text go back to patent US20220251546.

For the data set, the target named is T1, IFIT5 (rhIFIT5) (Homo sapiens) (UniProt Q13325).
T1 sequence: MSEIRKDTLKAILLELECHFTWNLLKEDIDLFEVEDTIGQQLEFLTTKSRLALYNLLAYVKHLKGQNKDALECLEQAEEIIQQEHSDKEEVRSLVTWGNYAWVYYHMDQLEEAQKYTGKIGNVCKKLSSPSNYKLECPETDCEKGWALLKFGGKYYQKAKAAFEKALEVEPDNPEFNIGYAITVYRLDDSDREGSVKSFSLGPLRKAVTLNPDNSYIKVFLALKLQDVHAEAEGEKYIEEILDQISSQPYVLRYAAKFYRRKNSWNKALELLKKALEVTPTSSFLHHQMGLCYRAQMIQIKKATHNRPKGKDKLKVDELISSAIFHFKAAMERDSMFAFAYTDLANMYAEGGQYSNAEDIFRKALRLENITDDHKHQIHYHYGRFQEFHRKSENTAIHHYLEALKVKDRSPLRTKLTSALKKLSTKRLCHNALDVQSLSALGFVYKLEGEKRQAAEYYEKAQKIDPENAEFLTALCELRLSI
The data set can be described thus: pulldown. The following applies: 5'-triphosphate; approx. 10-fold enrichment vs 16S rRNA, over 20-fold vs 23S rRNA by RT-qPCR.

Consider Listeria Lmo2210 mRNA and LhrC sRNA, for which the binding signal worked out at 10 fold.
